{"source": "patent US20220088057", "system": "GST-fusion SMAD3 protein (Sigma-Aldrich Co. LLC.)"}
{"substance": "His-fusion NEK6 protein (Eurofins Scientific SE)", "values": [{"measurement": "amount of phosphorylated SMAD3 (Western blot after in vitro kinase reaction of purified proteins with ATP)", "result": "By using NEK6 protein, the amount of phosphorylated SMAD3 was elevated"}]}
